Values of other authors, collected in publication PMC10213776.

Target: IL-18 (Homo sapiens) (UniProt Q14116)
Sequence (Q14116 37-193): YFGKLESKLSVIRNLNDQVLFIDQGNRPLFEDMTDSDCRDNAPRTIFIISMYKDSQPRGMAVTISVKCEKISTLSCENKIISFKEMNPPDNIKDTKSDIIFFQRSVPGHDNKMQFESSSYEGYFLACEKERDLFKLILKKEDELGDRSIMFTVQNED

IL-18BP, sequence (O95998 31-194): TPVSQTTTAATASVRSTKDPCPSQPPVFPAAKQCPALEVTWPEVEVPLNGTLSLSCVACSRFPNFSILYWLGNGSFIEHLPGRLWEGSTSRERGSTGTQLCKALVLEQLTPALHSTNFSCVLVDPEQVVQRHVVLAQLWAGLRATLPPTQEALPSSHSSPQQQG

Substance: IL-18BP (from UniProt O95998)
- Kd: 400 pM
